The target of one experiment is T1, human FXII (human, UniProt P00748 20-615).
T1 construct: Bought protein; also called factor XII; natural human FXII
T1 sequence (looked up): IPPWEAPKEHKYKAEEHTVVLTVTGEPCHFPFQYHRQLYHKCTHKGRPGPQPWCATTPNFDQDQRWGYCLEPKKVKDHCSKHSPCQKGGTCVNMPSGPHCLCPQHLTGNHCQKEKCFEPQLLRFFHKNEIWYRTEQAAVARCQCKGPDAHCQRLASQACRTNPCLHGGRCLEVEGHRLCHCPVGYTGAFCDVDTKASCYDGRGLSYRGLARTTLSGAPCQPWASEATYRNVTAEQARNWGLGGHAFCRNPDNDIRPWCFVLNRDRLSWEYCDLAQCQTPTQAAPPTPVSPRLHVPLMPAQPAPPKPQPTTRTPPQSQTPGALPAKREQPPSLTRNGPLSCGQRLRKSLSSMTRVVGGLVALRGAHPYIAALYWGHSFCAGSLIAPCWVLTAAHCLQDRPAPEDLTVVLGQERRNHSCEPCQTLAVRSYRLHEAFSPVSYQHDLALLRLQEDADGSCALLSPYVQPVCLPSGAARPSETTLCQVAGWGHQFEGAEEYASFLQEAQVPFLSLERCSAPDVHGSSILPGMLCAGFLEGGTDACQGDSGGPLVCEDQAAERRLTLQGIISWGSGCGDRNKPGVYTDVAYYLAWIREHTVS
The experiment in a line: ELISA, plate coated with human FXII at 1 ug/mL, nanobody dilutions, anti-6xHis-HRP. The protocol: The titer detection method in Example 1 was as follows: An ELISA plate was coated with human FXII at a protein concentration of 1 μg/mL overnight at 4° C.; then the ELISA plate was washed with PBST buffer and blocked with 5% skimmed milk powder at room temperature for 2 h; the ELISA plate was washed with PBST buffer (which was prepared with 1 L of PBS and 500 μL of Tween 20), then nanobodies at different dilutions were added, and the ELISA plate was incubated for 2 h at room temperature; the ELISA plate was washed with PBST buffer, then an […] (Abcam) was added, and the ELISA plate was incubated for 1 h at room temperature in the dark; the ELISA plate was washed with PBST buffer, a tetramethylbenzidine (TMB) (R&D Systems) substrate solution was added, and a chromogenic reaction was conducted for 5 min to 10 min; and a stop solution (sulfuric acid with a concentration of 2 M) was added, and an OD value of each well was determined at 450 nm by a microplate reader.
A general note: In an ELISA, binding on a coated surface is turned into a signal by an enzyme label.

For experiment [1], the target named is T2, biotinylated FXII protein (UniProt P00748 20-615, biotinylated (sites not given)).
T2 sequence (looked up): T1 sequence (looked up)
The experiment in a line: BLI (Fortebio Octet), biotinylated FXII loaded on the biosensor, N4-38 at 50, 20 and 10 ug/mL, 37 C. The protocol: (1) A Fortebio Octet special solution M (a PBST solution including BSA with a mass fraction of 0.5%) was prepared, filtered through a 0.22 μm filter membrane, and stored at 4° C. for later use; (2) a biotinylated FXII protein was diluted to 10 μg/mL, a nanobody N4-38 was diluted to 50 μg/mL, 20 μg/mL, and 10 μg/mL, and resulting samples each were added; (3) a biosensor was placed in a corresponding clean well of a spare box, and […] of the Fortebio Octet special solution M was added to each well corresponding to the biosensor; (4) a program was set as follows: first stage Baseline: 60 s, second stage Loading: 200 s, third stage Baseline 2: 100 s, fourth stage Association: 300 s, fourth stage Dissociation: 300 s, and reaction temperature during the whole process: 37° C.; and (5) after a reaction was completed, data analysis was conducted by software.

B1: nanobody N4-38 (VHH)
VHH: QVQLVESGGGLVQAGGSLRLSCAASGRTGNAYRMGWFRQAPGKEREFVAAISWNGDSTNYADSVKGRFTISRDNAKNTVYLQMNSLKPEDTAVYYCAVVKGIGVPPNMYDYWGQGTQVTVSS
notes: Alpaca nanobody expressed in E. coli from PET26b; also called N38; N4-38 antibody
For B1, in the experiment with human FXII, the titer came out at 220. In addition, the Kd in experiment [1] turned out to be 3.07 nM.

B2: nanobody A5-8 (VHH)
VHH: QVQLVESGGGLAQVGGSLRLSCAASGSTFSFKSMGWYREAPGNQRELVAAISSKGIMTNSDSVKGRFTISRDNAKNTVDLHLNNLKPEDTAVYYCNVVEVGVGGLVNVYWGQGTQVTVSS
notes: not shown: 6xHis tag from vector PET26b
Regarding B2, the titer in the experiment with human FXII turned out to be 220.

B3: nanobody N4-44 (VHH)
VHH: QVQLVESGGGLVQAGGSLRLSCAASGSDFSINAMGWYRQAPGKERELVATISSGGSTYYADSVKGRFTISRDNAKNTLYLHMNTLKPEDTAMYYCAILKGATPGYWGQGTQVTVSS
notes: as for B2
As to B3, the titer with human FXII was 220.

As a reminder, the Kd is a measure of binding affinity in units of concentration. The low end stands for higher affinity, the high end for lower affinity.
